# In publication PMC10397247:
# T1: 4H629-AA
# T1 chain: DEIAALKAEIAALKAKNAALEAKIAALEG
# T2: 4H3753-AA
# T2 chain: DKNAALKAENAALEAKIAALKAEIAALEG
# T3: 4H570-AA
# T3 chain: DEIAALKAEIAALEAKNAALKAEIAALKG
# T4: 4H3381-AA
# T4 chain: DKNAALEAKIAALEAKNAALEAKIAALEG
# T5: 4H3130-AA
# T5 chain: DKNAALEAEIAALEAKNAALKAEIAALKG
# T6: 4H3865-AA
# T6 chain: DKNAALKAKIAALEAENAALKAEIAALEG
# T7: 4H797-AA
# T7 chain: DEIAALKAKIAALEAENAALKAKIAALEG
# T8: 4H3395-AA
# T8 chain: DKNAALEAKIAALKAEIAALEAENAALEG
# T9: 4H850-AA
# T9 chain: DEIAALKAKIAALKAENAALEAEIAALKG
# T10: 4H3697-AA
# T10 chain: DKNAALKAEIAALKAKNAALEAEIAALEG
# T11: 4H3410-AA
# T11 chain: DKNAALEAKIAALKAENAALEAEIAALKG
# T12: 4H745-AA
# T12 chain: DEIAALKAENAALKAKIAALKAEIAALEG
# T13: 4H536-AA
# T13 chain: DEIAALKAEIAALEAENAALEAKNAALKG
# T14: 4H458-AA
# T14 chain: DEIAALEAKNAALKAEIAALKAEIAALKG
# T15: 4H3165-AA
# T15 chain: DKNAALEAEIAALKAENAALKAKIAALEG
# T16: 4H94-AA
# T16 chain: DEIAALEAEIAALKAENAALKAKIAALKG
# T17: 4H310-AA
# T17 chain: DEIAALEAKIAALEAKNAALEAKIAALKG
# T18: 4H930-AA
# T18 chain: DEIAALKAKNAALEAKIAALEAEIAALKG
# T19: 4H909-AA
# T19 chain: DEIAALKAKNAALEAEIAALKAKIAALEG
# T20: 4H3016-AA
# T20 chain: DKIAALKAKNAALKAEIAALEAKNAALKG
# T21: 4H710-AA
# T21 chain: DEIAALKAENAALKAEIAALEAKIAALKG
# T22: 4H3009-AA
# T22 chain: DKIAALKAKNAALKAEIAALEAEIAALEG
# T23: 4H3590-AA
# T23 chain: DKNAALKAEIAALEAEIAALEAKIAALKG
# T24: 4H891-AA
# T24 chain: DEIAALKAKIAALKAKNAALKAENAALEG
# T25: 4H485-AA
# T25 chain: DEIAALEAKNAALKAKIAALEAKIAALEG
# T26: 4H3120-AA
# T26 chain: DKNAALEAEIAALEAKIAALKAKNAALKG
# T27: 4H452-AA
# T27 chain: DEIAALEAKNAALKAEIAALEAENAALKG
# T28: 4H_APH
# T28 chain: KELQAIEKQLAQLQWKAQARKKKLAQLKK
# T29: 4H56-AA
# T29 chain: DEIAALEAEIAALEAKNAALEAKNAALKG
# T30: 4H_BCR
# T30 chain: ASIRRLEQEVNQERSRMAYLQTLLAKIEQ
# T31: 4H949-bN
# T31 chain: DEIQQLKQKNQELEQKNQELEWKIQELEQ
# T32: 4H932-bN
# T32 chain: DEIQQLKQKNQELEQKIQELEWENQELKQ
# T33: APC8516-AA
# T33 chain: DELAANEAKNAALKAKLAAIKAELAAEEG
# T34: APC9291-AA
# T34 chain: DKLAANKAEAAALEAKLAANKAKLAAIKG
# T35: APC9806-AA
# T35 chain: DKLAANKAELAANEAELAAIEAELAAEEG
# T36: APC9141-AA
# T36 chain: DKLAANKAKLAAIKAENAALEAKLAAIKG
# T37: APC9182-AA
# T37 chain: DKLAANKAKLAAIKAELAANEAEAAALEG
# T38: APC8401-AA
# T38 chain: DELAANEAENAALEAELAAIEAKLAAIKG
# T39: 4H918-bA
# T39 chain: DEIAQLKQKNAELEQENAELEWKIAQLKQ
# T40: 4H72-bA
# T40 chain: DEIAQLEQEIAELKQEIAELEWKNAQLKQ
# T41: 4H717-bA
# T41 chain: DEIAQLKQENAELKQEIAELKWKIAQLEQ
# T42: 4H953-bA
# T42 chain: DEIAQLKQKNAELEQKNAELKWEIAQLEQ
# T43: 4H883-bA
# T43 chain: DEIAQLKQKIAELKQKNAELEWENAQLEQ
# T44: 4H607-bA
# T44 chain: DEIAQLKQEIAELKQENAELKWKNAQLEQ
# T45: 4H908-bA
# T45 chain: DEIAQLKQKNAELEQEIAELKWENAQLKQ
# T46: 4H687-bA
# T46 chain: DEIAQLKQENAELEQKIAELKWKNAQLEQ
# T47: 4H797-bA
# T47 chain: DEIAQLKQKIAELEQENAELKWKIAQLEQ
# T48: 4H953-bH
# T48 chain: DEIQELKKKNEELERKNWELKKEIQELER
# T49: 4H754-bA
# T49 chain: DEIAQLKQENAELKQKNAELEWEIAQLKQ
# T50: 4H967-bA
# T50 chain: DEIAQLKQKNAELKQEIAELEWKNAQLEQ
# Legend:
# [1] = target: T1, 4H629-AA; assay: two-hybrid library CCmax; conditions: mean of both orientations;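 note: natural log of median RNA to DNA barcode read ratio; higher means stronger binding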
# [2] = target: T2, 4H3753-AA; assay: two-hybrid library CCmax; conditions: mean of both orientations;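 note: natural log of median RNA to DNA barcode read ratio; higher means stronger binding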
# [3] = target: T3, 4H570-AA; assay: two-hybrid library CCmax; conditions: mean of both orientations;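 note: natural log of median RNA to DNA barcode read ratio; higher means stronger binding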
# [4] = target: T4, 4H3381-AA; assay: two-hybrid library CCmax; conditions: mean of both orientations;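 note: natural log of median RNA to DNA barcode read ratio; higher means stronger binding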
# [5] = target: T5, 4H3130-AA; assay: two-hybrid library CCmax; conditions: mean of both orientations;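 note: natural log of median RNA to DNA barcode read ratio; higher means stronger binding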
# [6] = target: T6, 4H3865-AA; assay: two-hybrid library CCmax; conditions: mean of both orientations;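 note: natural log of median RNA to DNA barcode read ratio; higher means stronger binding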
# [7] = target: T7, 4H797-AA; assay: two-hybrid library CCmax; conditions: mean of both orientations
# [8] = target: T8, 4H3395-AA; assay: two-hybrid library CCmax
# [9] = target: T9, 4H850-AA; assay: two-hybrid library CCmax; conditions: mean of both orientations
# [10] = target: T10, 4H3697-AA; assay: two-hybrid library CCmax; conditions: mean of both orientations
# [11] = target: T11, 4H3410-AA; assay: two-hybrid library CCmax; conditions: mean of both orientations
# [12] = target: T12, 4H745-AA; assay: two-hybrid library CCmax; conditions: mean of both orientations
# [13] = target: T13, 4H536-AA; assay: two-hybrid library CCmax; conditions: mean of both orientations
# [14] = target: T14, 4H458-AA; assay: two-hybrid library CCmax; conditions: mean of both orientations
# [15] = target: T15, 4H3165-AA; assay: two-hybrid library CCmax; conditions: mean of both orientations
# [16] = target: T16, 4H94-AA; assay: two-hybrid library CCmax; conditions: mean of both orientations
# [17] = target: T17, 4H310-AA; assay: two-hybrid library CCmax; conditions: mean of both orientations
# [18] = target: T18, 4H930-AA; assay: two-hybrid library CCmax; conditions: mean of both orientations
# [19] = target: T19, 4H909-AA; assay: two-hybrid library CCmax; conditions: mean of both orientations
# [20] = target: T20, 4H3016-AA; assay: two-hybrid library CCmax; conditions: mean of both orientations
# [21] = target: T21, 4H710-AA; assay: two-hybrid library CCmax; conditions: mean of both orientations
# [22] = target: T22, 4H3009-AA; assay: two-hybrid library CCmax
# [23] = target: T23, 4H3590-AA; assay: two-hybrid library CCmax; conditions: mean of both orientations
# [24] = target: T24, 4H891-AA; assay: two-hybrid library CCmax
# [25] = target: T25, 4H485-AA; assay: two-hybrid library CCmax; conditions: mean of both orientations
# [26] = target: T26, 4H3120-AA; assay: two-hybrid library CCmax; conditions: mean of both orientations
# [27] = target: T27, 4H452-AA; assay: two-hybrid library CCmax
# [28] = target: GCN2_T; assay: two-hybrid library CCmax
# [29] = target: T28, 4H_APH; assay: two-hybrid library CCmax
# [30] = target: 4H_GCN4; assay: two-hybrid library CCmax
# 4H_GCN4, sequence (chain, as listed by the source): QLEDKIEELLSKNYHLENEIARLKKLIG
# [31] = target: T29, 4H56-AA; assay: two-hybrid library CCmax; conditions: mean of both orientations
# [32] = target: T30, 4H_BCR; assay: two-hybrid library CCmax; conditions: mean of both orientations
# [33] = target: T31, 4H949-bN; assay: two-hybrid library CCNG1
# [34] = target: T32, 4H932-bN; assay: two-hybrid library CCNG1
# [35] = target: T33, APC8516-AA; assay: two-hybrid library CCmax; conditions: mean of both orientations
# [36] = target: T34, APC9291-AA; assay: two-hybrid library CCmax; conditions: mean of both orientations
# [37] = target: T35, APC9806-AA; assay: two-hybrid library CCmax; conditions: mean of both orientations
# [38] = target: T36, APC9141-AA; assay: two-hybrid library CCmax; conditions: mean of both orientations
# [39] = target: T37, APC9182-AA; assay: two-hybrid library CCmax; conditions: mean of both orientations
# [40] = target: T38, APC8401-AA; assay: two-hybrid library CCmax
# [41] = target: T39, 4H918-bA; assay: two-hybrid library CCNG1
# [42] = target: T40, 4H72-bA; assay: two-hybrid library CCNG1
# [43] = target: T41, 4H717-bA; assay: two-hybrid library CCNG1
# [44] = target: T42, 4H953-bA; assay: two-hybrid library CCNG1
# [45] = target: T43, 4H883-bA; assay: two-hybrid library CCNG1
# [46] = target: T44, 4H607-bA; assay: two-hybrid library CCNG1
# [47] = target: T45, 4H908-bA; assay: two-hybrid library CCNG1
# [48] = target: T46, 4H687-bA; assay: two-hybrid library CCNG1
# [49] = target: T47, 4H797-bA; assay: two-hybrid library CCNG1
# [50] = target: T48, 4H953-bH; assay: two-hybrid library CCNG1
# [51] = target: T49, 4H754-bA; assay: two-hybrid library CCNG1
# [52] = target: T50, 4H967-bA; assay: two-hybrid library CCNG1
binder,measurement,setting,value
DKIAALKAKNAALKAEIAALEAEIAALEG [4H3009-AA],interaction score,[1],1.67
same,interaction score,[2],1.09
same,interaction score,[3],-0.427
same,interaction score,[4],-1.54
same,interaction score,[5],-0.967
same,interaction score,[6],-1.6
same,interaction score,[7],-1.65
same,interaction score,[8],-1.73
same,interaction score,[9],1.63
same,interaction score,[10],0.129
same,interaction score,[11],0.321
same,interaction score,[12],1.77
same,interaction score,[13],-1.35
same,interaction score,[14],0.956
same,interaction score,[15],-1.43
same,interaction score,[16],-0.794
same,interaction score,[17],-0.567
same,interaction score,[18],-0.0462
same,interaction score,[19],0.523
same,interaction score,[20],-1.16
same,interaction score,[21],1.94
same,interaction score,[22],2.25
same,interaction score,[23],0.389
same,interaction score,[24],-1.57
same,interaction score,[25],1.22
same,interaction score,[26],-0.531
DEIAALEAKNAALKAEIAALEAENAALKG [4H452-AA],interaction score,[27],-0.395
same,interaction score,[28],-0.726
same,interaction score,[29],-1.91
same,interaction score,[30],-0.935
same,interaction score,[31],-1.4
same,interaction score,[32],-1.94
DEIQQLKQKNQELEQKIQELEWENQELKQ [4H932-bN],interaction score,[33],-1.08
same,interaction score,[34],1.01
DELAANEAENAALEAELAAIEAKLAAIKG [APC8401-AA],interaction score,[35],-1.57
same,interaction score,[36],-1.42
same,interaction score,[37],-1.46
same,interaction score,[38],-1.49
same,interaction score,[39],-1.43
same,interaction score,[40],-1.51
DEIAQLKQEIAELKQENAELKWKNAQLEQ [4H607-bA],interaction score,[41],-1.07
same,interaction score,[42],-0.746
same,interaction score,[43],-0.469
same,interaction score,[44],-0.667
same,interaction score,[45],-1.28
same,interaction score,[46],0.454
same,interaction score,[47],-0.62
same,interaction score,[48],-0.84
same,interaction score,[49],-0.394
same,interaction score,[50],-1.41
same,interaction score,[51],-0.503
same,interaction score,[52],-1.29
